In US20240115721A1 (published 2024):
Where two headings read alike, the source gives them in different places.

B1: 2-C8-A (antibody, V domains shown)
VH: EVQLVESGGGLVQPGGSQRLSCAASGFTFSSYWMNWVRQAPGKGLEWVANIKEDGSEKYYVDSVKGRFTISRDNAKNSLYLQMNSLRAEDTAVYYCARDPGWAPFDYWGQGTLVTVSS
VL: DIQMSQSPSSLSASVGDRVTITCRASQGISNYLAWFQQKPGKAPKSLIYAASSLQSGVPSKFSGSGSGTDFTLAISSLQPEDFATYYCQQYNSFPYTFGQGTTLEIK
B2: 10-O18-A (antibody, V domains shown)
VH: QVQLQESGPGLVKPSETLSLTCTVSGGSINSYYWSWIRQPPGKGLEWIGYIFYSGITNYNPSLKSRVTISLDTSKNQFSLKLSSVTAADTAVYYCARIGVAGFYFDYWGQGTLVTVSS
VL: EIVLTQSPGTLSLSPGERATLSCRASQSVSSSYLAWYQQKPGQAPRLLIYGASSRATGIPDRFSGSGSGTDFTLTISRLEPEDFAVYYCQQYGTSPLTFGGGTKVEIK
B3: 7-I1-B (antibody, V domains shown)
VH: EVQLVESGGGLVKPGGSLRLSCAASGFTFSNTWMSWVRQAPGKGLEWVGRIKSKSDGGTTDYAAPVKGRFTISRDDSKNTLYLQMNSLKTEDTAVYYCTQYYWNSFDYWGQGTLVTVSS
VL: not shown
B4: 6-G23-F (antibody, V domains shown)
VH: QVQLVQSGAEVKKPGASVKVSCKASGYTFTSYYIHWVRQAPGQGLEWMGIIDPSDGSTNYAQKFQGRVTMTRDTSTSTVYMELSSLRSEDTAVYYCARDREYNYYGLDVWGQGTTVTVSS
VL: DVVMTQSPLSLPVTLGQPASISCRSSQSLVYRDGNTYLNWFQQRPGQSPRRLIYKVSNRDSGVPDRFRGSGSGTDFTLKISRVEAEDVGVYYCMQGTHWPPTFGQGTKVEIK

Legend:
Test in all cases: BLI (Octet HTX)
[1] = target: T1, Recombinant Human DLL3 Protein (amino acids Ala27-Ala479, cat #9749-DL, R&D Systems) (UniProt Q9NYJ7 27-479)
T1 chain: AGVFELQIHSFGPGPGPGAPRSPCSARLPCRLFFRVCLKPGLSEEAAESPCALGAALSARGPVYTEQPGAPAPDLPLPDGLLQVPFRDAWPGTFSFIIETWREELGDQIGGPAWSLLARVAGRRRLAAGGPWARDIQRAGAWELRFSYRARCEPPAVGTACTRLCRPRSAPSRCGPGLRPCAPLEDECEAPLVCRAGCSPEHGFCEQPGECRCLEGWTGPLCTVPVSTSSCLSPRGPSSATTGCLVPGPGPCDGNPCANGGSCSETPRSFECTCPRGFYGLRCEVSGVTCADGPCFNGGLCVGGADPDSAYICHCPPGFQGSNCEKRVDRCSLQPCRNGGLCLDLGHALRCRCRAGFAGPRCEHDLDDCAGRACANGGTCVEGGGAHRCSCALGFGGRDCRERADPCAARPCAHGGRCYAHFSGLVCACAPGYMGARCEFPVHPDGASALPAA

[2] = target: T1, Recombinant Human DLL3 Protein (amino …)
[3] = target: T1, Recombinant Human DLL3 Protein (amino …)

| Binder | Kd [1] [nM] | Kd [2] [nM] | Kd [3] [nM] |
| --- | --- | --- | --- |
| B1 | 0.668 | 0.668 | – |
| B2 | 0.602 | 0.62 | – |
| B3 | – | 0.68 | 0.686 |
| B4 | – | 0.16 | 0.16 |
